The record followed here is patent US20040156861A1 (US Dept. of Health and Human Services, published 2004).

Read-outs that look alike come from different tables or passages of the source. Some results are limits rather than exact numbers.

Experiment [1] concerns the target gp100 154-162 epitope …. Kind of experiment: cell-based or functional assay.
Experiment [2] concerns the target gp100 154-162 epitope-analogue …. Kind of experiment: cell-based or functional assay.
Experiment [3] concerns the target gp100 280-288 …. The experiment can be described thus: cell-based or functional assay.
In experiment [4] the target is T1, HLA-A*0201 (human).
T1 construct: also called HLA-A2.1; HLA-A2
Kind of experiment: T2 cell HLA-A*0201 stabilization, flow cytometry with mAb BB7.2. (In general: Flow cytometry measures light scatter and fluorescence of single cells or particles in a stream.)

The target of experiment [5] is Melan-A/MART-1 27-35 epitope …. Kind of experiment: cell-based or functional assay.
The target of experiment [6] is Melan-A/MART-1 27-35 epitope-analogue AIGIGLTV (SEQ ID NO: 30). Kind of experiment: cell-based or functional assay.
The target of experiment [7] is gp100 280-288 …. The experiment can be described thus: cell-based or functional assay. This is another data set of the same source.
The target of experiment [8] is T1, HLA-A*0201. Kind of experiment: T2 cell HLA-A*0201 stabilization, flow cytometry with mAb BB7.2. This is another data set of the same source.
Experimental: (§1) Briefly, peptides were diluted from DMSO stocks to various concentrations (final DMSO concentration 0.5%) and were incubated together with 10⁵ T2 cells for 14 hours at 37° C., 5% CO₂ in serum-free Iscoves medium in a volume of 100 ml in the presence of 3 mg/ml human β2-microglobulin (Sigma, St Louis, Mo.). […] The Fluorescence Index is expressed as: (experimental mean fluorescence÷background mean fluorescence)−1.
(§2) ^aBinding of peptides to HLA-A2.1 was analyzed using the processing-defective T2 cell line at the indicated peptide concentrations.
Experiment [9] concerns the target T1, HLA-A*0201. The description is as above. This is another data set of the same source.
Experimental: as §1, §2
The target in experiment [10] is T1, HLA-A*0201. Kind of experiment: decay of cell-surface HLA-A*0201-peptide complexes at 37 C on emetine-pretreated B-LCL, flow cytometry.
Experimental: Measurement of MHC-peptide complex stability was performed. […] The cells were then mild-acid treated and subsequently loaded with 200 mM of peptide for 1 hour at room temperature. Thereafter, the cells were washed twice to remove free peptide and were incubated at 37° C. for 0, 2, 4 and 6 hours.
Experiment [11] has as its target T1, HLA-A*0201. The experiment can be described thus: competition with 150 nM FL-labeled reference peptide on mild-acid treated HLA-A*0201+ JY B-LCL at 4 C, flow cytometry.
Text: Subsequently, the cells were washed, fixed with paraformaldehyde and analyzed by flow cytometry. […] The binding capacity of competitor peptides is expressed as the concentration needed to inhibit 50% of binding of the FL-labeled reference peptide (IC₅₀).

Consider “T-cell receptor of gp100-reactive TIL 1200 lymphocytes (TCR)”, for which the % specific lysis by TIL 1200 of T2 target cells preincubated with 1 µM peptide, E:T 20:1 (% specific lysis) in [1] stood at 67. Further, in experiment [2], the peptide titration, sensitization of T2 target cells for lysis by TIL 1200 (FIG. 1) (fold lower concentration than wild type) came to 10 and the peptide titration, sensitization of T2 target cells for lysis by TIL 1200 (FIG. 2) (fold lower concentration than wild type) was determined as 10. The % specific lysis by TIL 1200 of T2 target cells preincubated with 1 µM peptide, E:T 20:1 (% specific lysis) in experiment [3] stood at 3.

Turning to “Melan-A/MART-1 27-35 epitope-analogue AIGIGLTV (SEQ ID NO: 30) (peptide)”, in experiment [4], the Fluorescence Index (HLA-A*0201 stabilization), 25 µM peptide came to 1.29 and the Fluorescence Index (HLA-A*0201 stabilization), 50 µM peptide turned out to be 1.58.

Take “T-cell receptor of Melan-A/MART-1 27-35-reactive TIL 1235 lymphocytes (TCR)”: the % specific lysis by TIL 1235 of T2 target cells preincubated with 1 µM peptide, E:T 20:1 (% specific lysis) is 40 in experiment [5], -3 in experiment [3], 27 in experiment [6] and -1 in experiment [7].

With ATWGQYWQV (synthetic; alanine at position 1) [gp100 154-162 epitope-analogue ATWGQYWQV], in [8], the “Fluorescence Index (HLA-A*0201 stabilization), 25 µM peptide” value (shortened to “Fluorescence Index … 25 µM peptide”) is 1.42 and the “Fluorescence Index (HLA-A*0201 stabilization), 50 µM peptide” value (“Fluorescence Index … 50 µM peptide” for short) amounted to 1.94.

Regarding KAWGQYWQV (synthetic; alanine at position 2) [gp100 154-162 epitope-analogue KAWGQYWQV], in [8], the “Fluorescence Index … 25 µM peptide” value stood at 1.2 and the “Fluorescence Index … 50 µM peptide” value came out at 1.57.

B1: gp100 154-162 epitope-analogue KMWGQYWQV (peptide)
peptide: KMWGQYWQV
notes: synthetic; N-terminal anchor (position 2) replaced by M
With B1, in [9], the “Fluorescence Index … 25 µM peptide” value came to 1.28 and the “Fluorescence Index … 50 µM peptide” value amounted to 1.73.

B2: gp100 154-162 epitope-analogue KVWGQYWQV (peptide)
peptide: KVWGQYWQV
notes: synthetic; N-terminal anchor (position 2) replaced by V
The IC50 is the point on the concentration scale where inhibition reaches its midpoint. Read a high IC50 as weaker potency in that assay. Take B2: in [9], the “Fluorescence Index … 25 µM peptide” value worked out at 1.57 and the “Fluorescence Index … 50 µM peptide” value was 2.13. For the same molecule, in [10], the “Stability (DT 50%)” value is over 4 h. Moreover, in [11], the IC50 amounted to 800 nM.

Consider KTWGQYWQA (synthetic; alanine at position 9) [gp100 154-162 epitope-analogue KTWGQYWQA], for which, in experiment [8], the “Fluorescence Index … 25 µM peptide” value turned out to be 1.02 and the “Fluorescence Index … 50 µM peptide” value was 1.08.

B3: gp100 154-162 epitope-analogue KLWGQYWQV (peptide)
peptide: KLWGQYWQV
notes: synthetic; N-terminal anchor (position 2) replaced by L
For the molecule B3, in [9], the “Fluorescence Index … 25 µM peptide” value came out at 1.55 and the “Fluorescence Index … 50 µM peptide” value came to 2.19. The “Stability (DT 50%)” value in experiment [10] was over 4 h. For the same molecule, in [11], the IC50 was 400 nM.

As for KTWGQAWQV (synthetic; alanine at position 6) [gp100 154-162 epitope-analogue KTWGQAWQV], in experiment [8], the “Fluorescence Index … 25 µM peptide” value is 1.15 and the “Fluorescence Index … 50 µM peptide” value came to 1.42.

As to KTAGQYWQV (synthetic; alanine at position 3) [gp100 154-162 epitope-analogue KTAGQYWQV], in experiment [8], the “Fluorescence Index … 25 µM peptide” value was 1.02 and the “Fluorescence Index … 50 µM peptide” value amounted to 1.17.

Regarding KTWGAYWQV (synthetic; alanine at position 5) [gp100 154-162 epitope-analogue KTWGAYWQV], in experiment [8], the “Fluorescence Index … 25 µM peptide” value came to 1.25 and the “Fluorescence Index … 50 µM peptide” value came to 1.59.

B4: gp100 154-162 epitope-analogue KIWGQYWQV (peptide)
peptide: KIWGQYWQV
notes: synthetic; N-terminal anchor (position 2) replaced by I
With B4, in experiment [9], the “Fluorescence Index … 25 µM peptide” value turned out to be 1.43 and the “Fluorescence Index … 50 µM peptide” value worked out at 2. For the same molecule, in experiment [10], the “Stability (DT 50%)” value was over 4 h. The IC50 in experiment [11] turned out to be 600 nM.

For the molecule KTWGQYWAV (synthetic; alanine at position 8) [gp100 154-162 epitope-analogue KTWGQYWAV], in experiment [8], the “Fluorescence Index … 25 µM peptide” value is 1.35 and the “Fluorescence Index … 50 µM peptide” value is 1.72. The “Stability (DT 50%)” value in [10] is over 4 h. This molecule registered a 50% inhibitory concentration (IC50) in experiment [11] of 500 nM.

Take KTWGQYAQV (synthetic; alanine at position 7) [gp100 154-162 epitope-analogue KTWGQYAQV]: in [8], the “Fluorescence Index … 25 µM peptide” value was 1.14 and the “Fluorescence Index … 50 µM peptide” value turned out to be 1.31.
